Test results taken from publication PMC10516938, “Conformational dynamics of cohesin/Scc2 loading complex are regulated by Smc3 acetylation and ATP binding” (Nature Communications, 2023).
Where a chain is given by its changes, count along the chain named.

How the values were obtained:
[1] = target: T1, Smc3^QQ K1004C (S. cerevisiae, UniProt P47037 1-1230, K112Q | K113Q | K1004C); assay: cross-linking; in vivo BMOE cross-link of cysteine pairs in yeast cells arrested in late G1 by non-degradable Sic1(9m); Scc1-PK immunoprecipitated, western blot, band intensities quantified; conditions: partners not purified
T1 construct: Smc3, S. cerevisiae; source: S. cerevisiae W303, late G1 arrested cells, whole-cell extract
T1 sequence (looked up): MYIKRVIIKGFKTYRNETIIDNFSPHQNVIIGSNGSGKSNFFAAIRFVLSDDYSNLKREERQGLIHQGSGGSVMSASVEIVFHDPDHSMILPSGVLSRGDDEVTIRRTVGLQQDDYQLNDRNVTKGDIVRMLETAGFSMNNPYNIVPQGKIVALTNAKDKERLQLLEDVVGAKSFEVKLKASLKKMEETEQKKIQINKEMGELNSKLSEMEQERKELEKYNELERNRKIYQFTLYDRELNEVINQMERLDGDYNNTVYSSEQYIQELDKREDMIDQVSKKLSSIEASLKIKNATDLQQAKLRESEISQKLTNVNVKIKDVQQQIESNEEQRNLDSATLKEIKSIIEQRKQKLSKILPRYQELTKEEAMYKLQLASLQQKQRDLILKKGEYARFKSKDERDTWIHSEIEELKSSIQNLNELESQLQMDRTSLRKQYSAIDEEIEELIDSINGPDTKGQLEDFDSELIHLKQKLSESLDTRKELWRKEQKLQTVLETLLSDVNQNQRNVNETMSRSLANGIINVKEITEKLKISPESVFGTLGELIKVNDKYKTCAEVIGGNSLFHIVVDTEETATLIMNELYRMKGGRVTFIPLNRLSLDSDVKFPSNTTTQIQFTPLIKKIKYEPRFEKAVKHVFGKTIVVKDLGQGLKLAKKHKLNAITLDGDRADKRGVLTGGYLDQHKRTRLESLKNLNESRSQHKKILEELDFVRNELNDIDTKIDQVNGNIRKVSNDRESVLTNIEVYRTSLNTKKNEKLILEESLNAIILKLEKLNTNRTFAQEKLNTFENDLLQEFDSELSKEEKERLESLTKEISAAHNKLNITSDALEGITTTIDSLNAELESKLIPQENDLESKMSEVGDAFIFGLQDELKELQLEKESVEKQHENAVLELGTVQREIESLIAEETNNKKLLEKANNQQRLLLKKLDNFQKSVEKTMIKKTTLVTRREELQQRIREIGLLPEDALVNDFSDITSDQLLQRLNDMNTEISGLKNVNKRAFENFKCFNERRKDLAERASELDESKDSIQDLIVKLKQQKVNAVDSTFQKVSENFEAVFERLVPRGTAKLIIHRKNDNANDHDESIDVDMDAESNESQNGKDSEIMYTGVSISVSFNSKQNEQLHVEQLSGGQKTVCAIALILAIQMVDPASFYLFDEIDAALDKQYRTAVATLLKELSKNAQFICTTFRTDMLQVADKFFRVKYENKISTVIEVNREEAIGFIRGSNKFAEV

[2] = target: T2, Smc3^QQ Q67C (S. cerevisiae, UniProt P47037 1-1230, Q67C | K112Q | K113Q); assay: as above; conditions: partners not purified
T2 construct: Smc3, S. cerevisiae; source: S. cerevisiae W303, late G1 arrested cells, whole-cell extract
T2 sequence (looked up): T1 sequence (looked up) with Q67C, C1004K

B1: Scc2 D369C (natural protein, S. cerevisiae, UniProt Q04002 1-1493, looked up)
chain: MSYPGKDKNIPGRIIEALEDLPLSYLVPKDGLAALVNAPMRVSLPFDKTIFTSADDGRDVNINVLGTANSTTSSIKNEAEKERLVFKRPSNFTSSANSVDYVPTNFLEGLSPLAQSVLSTHKGLNDSINIEKKSEIVSRPEAKHKLESVTSNAGNLSFNDNSSNKKTKTSTGVTMTQANLAEQYLNDLKNILDIVGFDQNSAEIGNIEYWLQLPNKKFVLTTNCLTKLQMTIKNITDNPQLSNSIEITWLLRLLDVMVCNIKFSKSSLKMGLDDSMLRYIALLSTIVLFNIFLLGKNDSNLHRESYIMEPVNFLSDLIESLKILTIEYGSLKIEFDTFQEALELLPKYIRNGPFLDDNVTAKLVYIFSCLLMNNDIEATTNIQFQSFWDNVKRISSDILVSLFGSFDQQRGFIIEELLSHIEKLPTKRIQKKLRKVGNQNIYITDFTFTLMSMLENINCYSFCNQMKDIAPENIDLLKNEYKKQEEFLFNIVEHINDTILERFFKNPSALRYVIDNFVQDLLLLISSPQWPVTEKILSSLLKRLLSVYSPSMQVSANIETICLQLIGNIGSTIFDIKCSTRDHEDNNLIKMINYPETLPHFFKSFEECIAYNETIKCRRSATRFLWNLRLGTILILEEYTKDAKEQIITVDNELKKILEQIKDGGLGPELENREADFSTIKLDYFSILHAFELLNLYDPYLKLILSLLAKDKIKLRSTAIKCLSMLASKDKVILSNPMVKETIHRRLNDSSASVKDAILDLVSINSSYFEFYQQINNNYNDDSIMVRKHVLRINEKMYDETNDIVTKVYVIARILMKIEDEEDNIIDMARLILLNRWILKVHEVLDQPEKLKEISSSVLLVMSRVAIMNEKCSQLFDLFLNFYLLNKEAHSKEAYDKITHVLTILTDFLVQKIVELNSDDTNEKNSIVDKQNFLNLLAKFADSTVSFLTKDHITALYPYMVSDEKSDFHYYILQVFRCTFEKLANFKQKFLYDLETTLLSRLPKMNVREIDEAMPLIWSVATHRHDTARVAKACSSCLSHLHPYINKANNEEAAIVVDGKLQRLIYLSTGFARFCFPKPSNDKIAFLQEGETLYEHITKCLLVLSKDKITHVIRRVAVKNLTKLCGNHPKLFNSRHVLHLLDKEFQSDQLDIKLVILESLYDLFLLEERKSVRNTGVNSTLSSNSILKKKLLKTNRVEFANDGVCSALATRFLDNILQLCLLRDLKNSLVAIRLLKLILKFGYTNPSHSIPTVIALFASTSQYIRHVAYELLEDLFEKYETLVFSSLSRGVTKAIHYSIHTDEKYYYKHDHFLSLLEKLCGTGKKNGPKFFKVLKRIMQSYLDDITDLTSTNSSVQKSIFVLCTNISNITFVSQYDLVSLLKTIDLTTDRLKEVIMDEIGDNVSSLSVSEEKLSGIILIQLSLQDLGTYLLHLYGLRDDVLLLDIVEESELKNKQLPAKKPDISKFSAQLENIEQYSSNGKLLTYFRKHVKDT
notes: Scc2, S. cerevisiae; source: S. cerevisiae W303, in vivo, whole-cell extract
crosslinking efficiency relative to wild type [1]: ~10%

B2: Scc2 T1175C (natural protein, S. cerevisiae, UniProt Q04002 1-1493, looked up)
chain: B1 chain with C369D, T1175C
notes: as for B1
crosslink relative to wild-type Smc3 [2]: ~10%
